Experimental data from patent US20170360778, “Methods for Treating a Cytomegalovirus Infection” (The J. David Gladstone Institutes, published 2017).

Target: T1, IE2 (IE86) MBP fusion (Human cytomegalovirus, UniProt P19893 P19893:1-580)
T1 sequence: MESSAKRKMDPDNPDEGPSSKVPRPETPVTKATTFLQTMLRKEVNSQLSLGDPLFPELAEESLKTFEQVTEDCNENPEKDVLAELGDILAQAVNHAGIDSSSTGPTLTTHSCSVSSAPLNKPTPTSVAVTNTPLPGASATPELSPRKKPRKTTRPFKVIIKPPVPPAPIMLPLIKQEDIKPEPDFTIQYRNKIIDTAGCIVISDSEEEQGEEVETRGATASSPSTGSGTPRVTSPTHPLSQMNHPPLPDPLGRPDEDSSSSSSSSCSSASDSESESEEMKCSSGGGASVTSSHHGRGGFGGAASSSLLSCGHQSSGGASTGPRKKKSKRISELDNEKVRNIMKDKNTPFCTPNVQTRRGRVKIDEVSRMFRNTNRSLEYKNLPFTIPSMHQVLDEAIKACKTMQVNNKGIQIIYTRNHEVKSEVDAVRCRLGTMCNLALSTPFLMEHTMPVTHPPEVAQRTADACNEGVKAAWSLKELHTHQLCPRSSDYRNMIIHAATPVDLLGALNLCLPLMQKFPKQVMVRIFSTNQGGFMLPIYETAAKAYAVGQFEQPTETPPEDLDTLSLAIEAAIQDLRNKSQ
Assay: EMSA; IE2-CRS EMSA in presence of various amounts of Hoechst 33258 (BB33258); exact probe sequence not stated, CRS core given
Settings: tags: MBP fusion, expressed in E. coli BL21, amylose column

B1: hCMV CRS (IE2 binding site) (dsDNA)
DNA 1: TCGTTTAGTGAACCG
DNA 2: CGGTTCACTAAACGA
- binding result: binds
